Key:
[1] = target: T1, acetylcholine esterase (AChE) (Electrophorus electricus, UniProt O42275); test: AChE-ISFET (AChE-FET) response to substrate and inhibitor in PBS; type: biochemical, electric eel; details: dissolved in PBS, in comparison to ACh
T1 construct: purchased Sigma C1682
Method: In this experiment, the ISFET has undergone covalent bonding with acetylcholine-esterase using the aforementioned cyanuryl chloride techniques. As shown in the figure, the response of the ACHE-ISFET to various doses of acetylcholine (graph I). Acetylcholine was manually applied into a solution of 5 ml Phosphate Saline Buffer (PBS) in which the ISFET resided.
Both carbamylcholine and acetylcholine have been dissolved in phosphate buffered saline (PBS).
Acetylcholine esterase (C1682, taken from electric eel), acetylcholine-iodine, acetylcholine-chloride, cyanuric chloride and eserine (physostigmine), ere purchased from Sigma and were used as supplied.
ISFETs were first rinsed with isopropanol and dried under Argon. A is solution of 0.1M cyanuric chloride (in dichloromethane) was prepared and then applied to the Al2O3 gate surface of the ISFET. ISFETs were then dried with Argon and heated at 70° C. for 15 minutes, then rinsed again with dichloromethane and dried under Argon. […]
The resulting hybrid system of Example 3, was immersed in a PBS solution as a background electrolyte for the measurements. […] The current between source and drain electrodes (Ids) was measured, while potential between drain and source electrodes (Vds), and between the gate and source electrodes (Vgs) were kept constant at 0.1V and 0.45V, respectively, recording the electrical activity occurring at the gate surface.

CC(=O)OCC[N+](C)(C)C = test: purified protein, by the assay type; details: other: surface-bound AChE, Lineweaver-Burk plot, DTNB 5×10^−5 M
Method: In this test, the enzyme activity is measured by following the increase of yellow color produced from the reaction of thiocholine with the DTNB ion (Sawada, O., Ishida, T., Kihachiro, H., J. Biochem., 129, 2001, 899-907).
The reaction of acetylthiocholine-iodide with DTNB (5,5′-dithio-bis (2-nitrobenzoic acid) marker was conducted by immersing the solid substrate containing the immobilized ACHE, obtained above, in an optical cell compatible with the spectrophotometer. The rate of color production was measure at 410 nm. All of the investigated solutions were freshly prepared: ACh in phosphate buffer of pH=8.0 and the DTNB dissolved in PBS buffer of pH=6.5.
The enzyme activity was probed by two methods: Ex-situ and In-situ experiments. In the Ex-situ experiments the solution of the marker containing ACh is measured before and after the exposure to the immobilized ACHE substrate. The optical cell contains a solution composed of 2 ml of 2.5.10^−3 M ACh and 2 ml of 1.10^−4 M DTNB. The optical spectra were recorded before and after 15 min of the immobilized enzyme solution insertion to this optical cell. In the In-situ experiments, the substrate is immersed in the optical cell containing various concentrations of the DTNB/ACh solution. The hydrolysis product was followed in two ways: (a) by recording the spectra in fixed time interval and (b) by the time course mode at 410 nm. […]

T1 sequence (O42275 24-633): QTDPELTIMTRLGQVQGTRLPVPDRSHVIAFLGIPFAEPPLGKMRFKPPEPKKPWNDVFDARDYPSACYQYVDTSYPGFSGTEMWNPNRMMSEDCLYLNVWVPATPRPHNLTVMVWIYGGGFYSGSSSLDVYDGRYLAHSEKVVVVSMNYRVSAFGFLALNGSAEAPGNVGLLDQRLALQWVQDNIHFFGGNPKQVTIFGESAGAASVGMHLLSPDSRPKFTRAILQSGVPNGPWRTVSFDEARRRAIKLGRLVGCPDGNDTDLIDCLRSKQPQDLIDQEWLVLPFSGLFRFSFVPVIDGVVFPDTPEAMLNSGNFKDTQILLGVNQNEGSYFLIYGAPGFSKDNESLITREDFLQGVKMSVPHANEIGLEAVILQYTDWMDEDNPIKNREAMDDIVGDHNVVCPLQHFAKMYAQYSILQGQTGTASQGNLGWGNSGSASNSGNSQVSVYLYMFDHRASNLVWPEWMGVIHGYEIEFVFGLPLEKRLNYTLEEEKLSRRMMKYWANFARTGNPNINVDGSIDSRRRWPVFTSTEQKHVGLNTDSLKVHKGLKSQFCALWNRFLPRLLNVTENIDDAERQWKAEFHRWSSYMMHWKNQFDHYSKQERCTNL

C[N+](C)(C)CCOC(N)=O.[Cl-] [Carbamylcholine]
response of AChE-ISFET on application to the solution [1]: no response

surface-bound AChE (Electrophorus electricus)
Km (CC(=O)OCC[N+](C)(C)C): 310 µM
Vmax (CC(=O)OCC[N+](C)(C)C): 1e-07 M/s
